Tests used:
[1] = molecular target: Isoform H17 of Myeloperoxidase precursor (human) (UniProt P05164); assay: BiP-Sepharose pull-down, RA synovial fluid sample 1B, 1 M NaCl eluate, MS; may be indirect
[2] = molecular target: Haptoglobin precursor (human) (UniProt P00738); assay: as above
[3] = molecular target: IGKV1-5 protein, immunoglobulin kappa variable 1-5 (human) (UniProt P01602); assay: as above
[4] = molecular target: Isoform A of Proteoglycan-4 precursor (human) (UniProt Q92954); assay: as above
[5] = molecular target: Clusterin precursor (human) (UniProt P10909); assay: as above
[6] = molecular target: Isoform 1 of Fibrinogen alpha chain precursor (human) (UniProt P02671); assay: as above
Isoform 1 of Fibrinogen alpha chain precursor (human), sequence (P02671 20-866 limits assumed, form in doubt): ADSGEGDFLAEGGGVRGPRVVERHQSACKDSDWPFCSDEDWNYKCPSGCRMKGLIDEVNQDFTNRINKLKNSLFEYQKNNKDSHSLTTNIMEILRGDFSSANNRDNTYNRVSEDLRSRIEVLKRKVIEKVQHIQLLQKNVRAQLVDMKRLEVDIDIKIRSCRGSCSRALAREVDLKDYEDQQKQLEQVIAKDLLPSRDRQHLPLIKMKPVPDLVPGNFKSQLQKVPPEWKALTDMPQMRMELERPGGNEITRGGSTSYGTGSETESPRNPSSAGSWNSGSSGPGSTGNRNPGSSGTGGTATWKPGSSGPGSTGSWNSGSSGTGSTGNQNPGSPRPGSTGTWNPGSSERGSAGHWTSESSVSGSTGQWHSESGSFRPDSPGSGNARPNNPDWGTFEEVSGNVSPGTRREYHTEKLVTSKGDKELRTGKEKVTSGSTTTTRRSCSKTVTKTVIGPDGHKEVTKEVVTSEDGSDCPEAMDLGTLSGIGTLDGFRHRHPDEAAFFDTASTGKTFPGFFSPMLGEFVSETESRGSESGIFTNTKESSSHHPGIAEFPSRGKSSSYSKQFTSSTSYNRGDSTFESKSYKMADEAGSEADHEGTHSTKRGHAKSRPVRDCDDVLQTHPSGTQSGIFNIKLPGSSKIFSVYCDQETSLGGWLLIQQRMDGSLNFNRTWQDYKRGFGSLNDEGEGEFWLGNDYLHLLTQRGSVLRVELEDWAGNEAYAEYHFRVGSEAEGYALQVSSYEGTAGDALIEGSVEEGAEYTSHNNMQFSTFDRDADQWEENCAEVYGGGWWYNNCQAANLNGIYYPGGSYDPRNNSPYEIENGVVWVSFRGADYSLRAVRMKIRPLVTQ

[7] = molecular target: Apolipoprotein A-I precursor (human) (UniProt P02647); assay: as above
Apolipoprotein A-I precursor (human), sequence (P02647 25-267 limits assumed): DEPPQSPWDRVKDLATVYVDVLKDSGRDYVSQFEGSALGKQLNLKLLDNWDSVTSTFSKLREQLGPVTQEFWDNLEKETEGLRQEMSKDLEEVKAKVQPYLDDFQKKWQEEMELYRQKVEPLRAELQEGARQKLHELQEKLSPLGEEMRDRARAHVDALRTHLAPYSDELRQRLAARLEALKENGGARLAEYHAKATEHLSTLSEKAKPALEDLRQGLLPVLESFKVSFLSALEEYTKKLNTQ

[8] = molecular target: Single-chain Fv (Fragment), Ig heavy chain V-III region TRO (human) (UniProt P01762); assay: as above
Single-chain Fv (Fragment), Ig heavy chain V-III region TRO (human), sequence (P01762 20-117 limits assumed): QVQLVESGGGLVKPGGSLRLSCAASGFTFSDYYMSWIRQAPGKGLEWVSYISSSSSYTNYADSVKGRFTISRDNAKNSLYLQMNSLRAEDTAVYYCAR

[9] = molecular target: Histidine-rich glycoprotein precursor (human) (UniProt P04196); assay: as above
[10] = molecular target: Apolipoprotein E precursor/Apolipoprotein E/Apolipoprotein E3 (Fragment) (human) (UniProt P02649); assay: as above
Apolipoprotein E precursor/Apolipoprotein E/Apolipoprotein E3 (Fragment) (human), sequence (P02649 19-317 limits assumed): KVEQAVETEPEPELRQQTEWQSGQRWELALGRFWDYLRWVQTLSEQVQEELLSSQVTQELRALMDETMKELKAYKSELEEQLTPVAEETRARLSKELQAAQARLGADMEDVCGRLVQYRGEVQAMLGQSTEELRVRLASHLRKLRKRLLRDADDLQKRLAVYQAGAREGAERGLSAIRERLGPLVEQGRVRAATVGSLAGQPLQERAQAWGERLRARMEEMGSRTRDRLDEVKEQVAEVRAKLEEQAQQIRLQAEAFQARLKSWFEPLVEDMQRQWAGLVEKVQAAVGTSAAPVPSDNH

[11] = molecular target: Apolipoprotein A-IV precursor (human) (UniProt P06727); assay: as above
[12] = molecular target: FLJ00385 protein (Fragment), immunoglobulin heavy constant mu (human) (UniProt P01871); assay: as above
[13] = molecular target: Hypothetical protein DKFZp686I04196 (Fragment)/Immunoglobulin heavy constant gamma 2 (G2m marker)/Ig gamma-2 chain C region (human) [IgG part: P01859]; assay: as above
Hypothetical protein DKFZp686I04196 (Fragment)/Immunoglobulin heavy constant gamma 2 (G2m marker)/Ig gamma-2 chain C region (human) [IgG part: P01859], sequence (P01859 other isoform, or with tags, fused parts or gaps limits assumed): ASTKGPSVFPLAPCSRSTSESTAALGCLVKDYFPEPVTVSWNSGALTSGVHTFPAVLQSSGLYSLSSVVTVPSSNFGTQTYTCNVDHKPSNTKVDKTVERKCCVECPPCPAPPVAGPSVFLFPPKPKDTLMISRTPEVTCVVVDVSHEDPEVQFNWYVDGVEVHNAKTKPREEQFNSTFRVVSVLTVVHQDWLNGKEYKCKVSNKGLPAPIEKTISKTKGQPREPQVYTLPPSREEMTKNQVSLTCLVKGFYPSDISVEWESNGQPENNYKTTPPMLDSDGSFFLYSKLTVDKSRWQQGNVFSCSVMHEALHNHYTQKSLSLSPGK

[14] = molecular target: Heat shock 70 kDa protein 1L (human) (UniProt P34931); assay: as above
Heat shock 70 kDa protein 1L (human), sequence (P34931 whole entry): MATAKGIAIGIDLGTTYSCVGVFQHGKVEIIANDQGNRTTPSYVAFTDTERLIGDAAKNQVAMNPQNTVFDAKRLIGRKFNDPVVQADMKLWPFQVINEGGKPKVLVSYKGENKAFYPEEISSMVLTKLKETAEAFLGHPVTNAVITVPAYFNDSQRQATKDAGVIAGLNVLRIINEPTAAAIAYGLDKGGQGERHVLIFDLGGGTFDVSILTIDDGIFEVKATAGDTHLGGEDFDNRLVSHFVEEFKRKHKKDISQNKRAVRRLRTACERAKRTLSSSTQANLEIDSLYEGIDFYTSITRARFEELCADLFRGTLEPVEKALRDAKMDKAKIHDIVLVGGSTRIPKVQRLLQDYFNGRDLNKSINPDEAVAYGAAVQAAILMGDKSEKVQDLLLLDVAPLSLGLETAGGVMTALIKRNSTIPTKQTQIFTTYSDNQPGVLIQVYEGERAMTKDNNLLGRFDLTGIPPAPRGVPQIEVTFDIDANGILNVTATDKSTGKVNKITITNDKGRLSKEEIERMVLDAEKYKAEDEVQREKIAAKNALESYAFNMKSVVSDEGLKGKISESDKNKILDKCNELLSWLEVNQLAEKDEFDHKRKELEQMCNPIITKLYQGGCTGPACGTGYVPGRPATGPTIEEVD

[15] = molecular target: IGHM protein, immunoglobulin heavy chain mu (heavy chain disease protein) (human) (UniProt P01871); assay: as above
[16] = molecular target: IGHG4 protein, immunoglobulin heavy constant gamma 4 (human) [IgG part: P01861]; assay: as above
[17] = molecular target: 187 kDa protein/Complement component 3 (human) (UniProt P01024); assay: as above
[18] = molecular target: Galectin-3-binding protein precursor (human) (UniProt Q08380); assay: as above
Galectin-3-binding protein precursor (human), sequence (Q08380 19-585 limits assumed): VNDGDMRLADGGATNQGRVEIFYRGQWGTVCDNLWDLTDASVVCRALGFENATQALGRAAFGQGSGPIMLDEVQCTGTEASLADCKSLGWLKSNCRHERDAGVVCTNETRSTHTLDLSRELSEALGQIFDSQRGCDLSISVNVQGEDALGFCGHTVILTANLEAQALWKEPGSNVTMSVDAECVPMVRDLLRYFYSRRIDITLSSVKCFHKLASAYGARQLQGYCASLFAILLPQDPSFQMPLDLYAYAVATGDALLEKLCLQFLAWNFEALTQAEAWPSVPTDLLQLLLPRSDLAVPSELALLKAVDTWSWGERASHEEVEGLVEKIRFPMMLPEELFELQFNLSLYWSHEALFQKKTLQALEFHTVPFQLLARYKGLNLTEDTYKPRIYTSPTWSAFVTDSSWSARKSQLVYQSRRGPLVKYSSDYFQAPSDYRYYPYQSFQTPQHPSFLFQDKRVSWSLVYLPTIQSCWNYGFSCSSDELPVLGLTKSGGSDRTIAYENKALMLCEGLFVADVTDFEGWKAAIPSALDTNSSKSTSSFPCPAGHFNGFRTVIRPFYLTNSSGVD

[19] = molecular target: Vitronectin precursor (Serum-spreading factor/S-protein) (human) (UniProt P04004); assay: as above
[20] = molecular target: Hypothetical protein/Heat shock 70 kDa protein 5 (glucose-regulated protein, 78 kDa = GRP78 = BiP = HSPA5), as identified in eluates (human) (UniProt P11021); assay: BiP-Sepharose pull-down, RA synovial fluid sample 6B, 1 M NaCl eluate, MS; BiP may stem from the column
Hypothetical protein/Heat shock 70 kDa protein 5 (glucose-regulated protein, 78 kDa = GRP78 = BiP = HSPA5), as identified in eluates (human), sequence (P11021 19-654 limits assumed): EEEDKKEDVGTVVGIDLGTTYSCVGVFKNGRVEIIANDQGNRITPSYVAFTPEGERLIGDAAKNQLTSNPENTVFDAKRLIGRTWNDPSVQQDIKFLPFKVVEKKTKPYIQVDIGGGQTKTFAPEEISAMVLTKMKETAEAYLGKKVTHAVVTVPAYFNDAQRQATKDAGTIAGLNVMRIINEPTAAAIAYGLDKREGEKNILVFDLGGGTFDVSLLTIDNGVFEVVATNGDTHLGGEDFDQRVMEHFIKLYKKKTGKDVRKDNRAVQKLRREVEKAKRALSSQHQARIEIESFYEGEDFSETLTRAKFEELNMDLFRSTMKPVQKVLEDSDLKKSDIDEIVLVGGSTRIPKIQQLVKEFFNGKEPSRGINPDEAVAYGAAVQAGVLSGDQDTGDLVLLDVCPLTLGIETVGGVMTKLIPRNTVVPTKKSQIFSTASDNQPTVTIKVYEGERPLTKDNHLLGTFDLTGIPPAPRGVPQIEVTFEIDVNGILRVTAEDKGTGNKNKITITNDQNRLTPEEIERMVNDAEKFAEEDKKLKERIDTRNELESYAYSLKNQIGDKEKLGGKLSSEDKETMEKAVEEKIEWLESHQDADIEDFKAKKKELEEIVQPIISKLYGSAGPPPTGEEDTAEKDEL

[21] = molecular target: Immunoglobulin heavy constant gamma 3 (G3m marker)/Ig gamma-3 chain C region (human) (UniProt P01860); assay: BiP-Sepharose pull-down, AL amyloidosis patient I plasma (B2), MS of urea eluate; may be indirect
[22] = molecular target: 25 kDa protein/immunoglobulin lambda chain/rheumatoid factor G9 light chain (lambda V3)/IGLC1 protein (human) (UniProt P0CG04); assay: as above
[23] = molecular target: IGLC2 protein (immunoglobulin lambda C2)/Immunoglobulin lambda (human) (UniProt P0DOY2); assay: as above
[24] = molecular target: Immunoglobulin lambda variable 3-25/V2-17 protein (Fragment) (human) (UniProt P01717); assay: as above
Immunoglobulin lambda variable 3-25/V2-17 protein (Fragment) (human), sequence (P01717 20-112 limits assumed): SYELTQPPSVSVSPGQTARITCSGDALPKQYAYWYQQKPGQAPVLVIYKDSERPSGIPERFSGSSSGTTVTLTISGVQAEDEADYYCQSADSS

[25] = molecular target: Fc fragment of IgG binding protein (IgGFc-binding protein precursor) (human) (UniProt Q9Y6R7); assay: as above
[26] = molecular target: Apolipoprotein E precursor/Apolipoprotein E/Apolipoprotein E3 (Fragment) (human) (UniProt P02649); assay: as above
[27] = molecular target: Isoform Long of Antigen KI-67/Antigen KI-67 (human) (UniProt P46013); assay: as above
[28] = molecular target: Ig heavy chain V-III region CAM (human) (UniProt P01768); assay: BiP-Sepharose pull-down, RA patient IV synovial fluid (B6), MS of urea eluate; may be indirect
[29] = molecular target: Immunoglobulin heavy constant mu (IPI00479708) (human) (UniProt P01871); assay: as above

recombinant human BiP with C-terminal linker, FLAG-tag and His-tag (BiP-FLAG-His), sequence (P11021 other isoform, or with tags, fused parts or gaps): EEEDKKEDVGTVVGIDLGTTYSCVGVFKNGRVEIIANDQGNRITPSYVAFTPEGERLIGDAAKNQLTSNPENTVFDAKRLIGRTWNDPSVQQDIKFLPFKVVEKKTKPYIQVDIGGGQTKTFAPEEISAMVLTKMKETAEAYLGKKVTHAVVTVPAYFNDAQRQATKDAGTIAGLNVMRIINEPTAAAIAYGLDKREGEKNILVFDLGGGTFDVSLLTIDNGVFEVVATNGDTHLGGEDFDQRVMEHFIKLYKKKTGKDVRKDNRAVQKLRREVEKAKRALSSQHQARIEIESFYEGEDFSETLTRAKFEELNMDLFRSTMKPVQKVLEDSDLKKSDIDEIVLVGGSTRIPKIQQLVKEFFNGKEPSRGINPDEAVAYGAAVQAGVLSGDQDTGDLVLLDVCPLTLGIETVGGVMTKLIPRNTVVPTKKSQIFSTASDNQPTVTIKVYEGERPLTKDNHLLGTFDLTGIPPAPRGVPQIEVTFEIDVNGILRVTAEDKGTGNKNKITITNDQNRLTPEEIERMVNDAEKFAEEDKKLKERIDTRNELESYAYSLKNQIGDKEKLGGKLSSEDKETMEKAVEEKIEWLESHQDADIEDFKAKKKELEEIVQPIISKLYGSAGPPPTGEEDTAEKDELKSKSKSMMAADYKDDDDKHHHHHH
Haptoglobin precursor (human), sequence (P00738 19-406 limits assumed): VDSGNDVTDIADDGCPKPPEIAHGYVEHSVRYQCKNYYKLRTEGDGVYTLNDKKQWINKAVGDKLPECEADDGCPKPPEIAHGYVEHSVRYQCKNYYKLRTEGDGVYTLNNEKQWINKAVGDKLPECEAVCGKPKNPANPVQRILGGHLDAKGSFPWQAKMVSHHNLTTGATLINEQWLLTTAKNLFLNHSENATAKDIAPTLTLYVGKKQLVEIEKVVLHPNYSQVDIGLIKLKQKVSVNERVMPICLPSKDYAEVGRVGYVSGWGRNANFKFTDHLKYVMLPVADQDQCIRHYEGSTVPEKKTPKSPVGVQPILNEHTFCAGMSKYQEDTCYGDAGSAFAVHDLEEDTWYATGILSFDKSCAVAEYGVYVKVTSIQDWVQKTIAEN
IGKV1-5 protein, immunoglobulin kappa variable 1-5 (human), sequence (P01602 23-117 limits assumed): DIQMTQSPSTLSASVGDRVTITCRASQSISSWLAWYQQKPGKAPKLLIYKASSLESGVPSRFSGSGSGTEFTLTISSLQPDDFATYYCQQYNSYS

# of unique peptides [1]: 1 peptides
# of unique peptides [2]: 1 peptides
# of unique peptides [3]: 3 peptides
# of unique peptides [4]: 2 peptides
# of unique peptides [5]: 1 peptides
# of unique peptides [6]: 3 peptides
# of unique peptides [7]: 3 peptides
# of unique peptides [8]: 2 peptides
# of unique peptides [9]: 2 peptides
# of unique peptides [10]: 1 peptides
# of unique peptides [11]: 3 peptides
# of unique peptides [12]: 1 peptides
# of unique peptides [13]: 1 peptides
# of unique peptides [14]: 1 peptides
# of unique peptides [15]: 3 peptides
# of unique peptides [16]: 4 peptides
# of unique peptides [17]: 2 peptides
# of unique peptides [18]: 1 peptides
# of unique peptides [19]: 1 peptides
# of unique peptides [20]: 17 peptides
# of peptides [21]: 2 peptides
# of peptides [22]: 1 peptides
# of peptides [23]: 1 peptides
# of peptides [24]: 8 peptides
# of peptides [25]: 4 peptides
# of peptides [26]: 6 peptides
# of peptides [27]: 1 peptides
# of peptides [28]: 2 peptides
# of peptides [29]: 1 peptides
Substance: recombinant human BiP with C-terminal linker, FLAG-tag and His-tag (BiP-FLAG-His) (from UniProt P11021 19-654)

Reference: US20100015126A1, “Methods of Binding of Cross-Beta Structures By Chaperones” (priority 2006, published 2010)
